Starred links: 1 amine or outer side, 2 acyl side, 3 side chain; linkers in the order of their positions; H or OH if unused. Non-standard residues stand in square brackets, D forms with d. 3Pal4Ph4CO2H = 4-[5-[(2S)-2-amino-2-carboxy-ethyl]-2-pyridyl]benzoic acid, O=C([C@H](Cc1ccc(-c2ccc(C(=O)[*:3])cc2)nc1)N[*:1])[*:2]; dProc3CH2Pyrim = (2R,3S)-3-(pyrimidin-5-ylmethyl)pyrrolidine-2-carboxylic acid, O=C([C@H]1[C@@H](Cc2cncnc2)CCN1[*:1])[*:2]; TyrEtNAc = (2S)-3-[4-(2-acetamidoethoxy)phenyl]-2-amino-propanoic acid, CC(=O)NCCOc1ccc(C[C@H](N[*:1])C(=O)[*:2])cc1; dProc3Bn = (2R,3S)-3-benzylpyrrolidine-2-carboxylic acid, O=C([C@H]1[C@@H](Cc2ccccc2)CCN1[*:1])[*:2]; dProc4Bn = (2R,4R)-4-benzylpyrrolidine-2-carboxylic acid, O=C([C@H]1C[C@@H](Cc2ccccc2)CN1[*:1])[*:2]; Trp(βS-Me,4-F) = C[C@@H](c1c[nH]c2cccc(F)c12)[C@H](N)C(=O)O; Bip(4'-COOH) = N[C@@H](Cc1ccc(-c2ccc(C(=O)O)cc2)cc1)C(=O)O; Ala(1-bicyclo(1.1.1)pentyl) = N[C@@H](CC12CC(C1)C2)C(=O)O; dPro(4R-Bzl(4-F)) = O=C(O)[C@H]1C[C@@H](Cc2ccc(F)cc2)CN1; Ala(morpholin-4-yl) = N[C@@H](CN1CCOCC1)C(=O)O; Ala(pyrimidin-5-yl) = N[C@@H](Cc1cncnc1)C(=O)O; Phe(4-COOH) = N[C@@H](Cc1ccc(C(=O)O)cc1)C(=O)O; Pro(cis-4-F) = O=C(O)[C@@H]1C[C@H](F)CN1; 3Pal = N[C@@H](Cc1cccnc1)C(=O)O; 4Pal = N[C@@H](Cc1ccncc1)C(=O)O; d(αMeS) = C[C@@](N)(CO)C(=O)O; Dab = NCC[C@H](N)C(=O)O; Aib = CC(C)(N)C(=O)O
B1: SEQ ID NO: 34 (peptide)
peptide: cyclo([Bip(4'-COOH)][4Pal][Phe(4-COOH)]G[Pro(cis-4-F)][Trp(βS-Me,4-F)][Aib]EW[Aib][3Pal]QSG[dPro(4R-Bzl(4-F))])
SMILES: C[C@@H](c1c[nH]c2cccc(F)c12)[C@@H]1NC(=O)[C@@H]2C[C@H](F)CN2C(=O)CNC(=O)[C@H](Cc2ccc(C(=O)O)cc2)NC(=O)[C@H](Cc2ccncc2)NC(=O)[C@H](Cc2ccc(-c3ccc(C(=O)O)cc3)cc2)NC(=O)[C@H]2C[C@@H](Cc3ccc(F)cc3)CN2C(=O)CNC(=O)[C@H](CO)NC(=O)[C@H](CCC(N)=O)NC(=O)[C@H](Cc2cccnc2)NC(=O)C(C)(C)NC(=O)[C@H](Cc2c[nH]c3ccccc23)NC(=O)[C@H](CCC(=O)O)NC(=O)C(C)(C)NC1=O
B2: SEQ ID NO: 30 (peptide)
peptide: cyclo([Bip(4'-COOH)][4Pal][Phe(4-COOH)]G[Pro(cis-4-F)][Trp(βS-Me,4-F)][Aib]EW[Aib][Ala(pyrimidin-5-yl)]QSG[dProc4Bn])
SMILES: C[C@@H](c1c[nH]c2cccc(F)c12)[C@@H]1NC(=O)[C@@H]2C[C@H](F)CN2C(=O)CNC(=O)[C@H](Cc2ccc(C(=O)O)cc2)NC(=O)[C@H](Cc2ccncc2)NC(=O)[C@H](Cc2ccc(-c3ccc(C(=O)O)cc3)cc2)NC(=O)[C@H]2C[C@@H](Cc3ccccc3)CN2C(=O)CNC(=O)[C@H](CO)NC(=O)[C@H](CCC(N)=O)NC(=O)[C@H](Cc2cncnc2)NC(=O)C(C)(C)NC(=O)[C@H](Cc2c[nH]c3ccccc23)NC(=O)[C@H](CCC(=O)O)NC(=O)C(C)(C)NC1=O
B3: SEQ ID NO: 28 (peptide)
peptide: cyclo([Bip(4'-COOH)][4Pal][Phe(4-COOH)]G[Pro(cis-4-F)][Trp(βS-Me,4-F)][Aib]EW[Aib][Ala(pyrimidin-5-yl)]QSG[dProc3Bn])
SMILES: C[C@@H](c1c[nH]c2cccc(F)c12)[C@@H]1NC(=O)[C@@H]2C[C@H](F)CN2C(=O)CNC(=O)[C@H](Cc2ccc(C(=O)O)cc2)NC(=O)[C@H](Cc2ccncc2)NC(=O)[C@H](Cc2ccc(-c3ccc(C(=O)O)cc3)cc2)NC(=O)[C@H]2[C@@H](Cc3ccccc3)CCN2C(=O)CNC(=O)[C@H](CO)NC(=O)[C@H](CCC(N)=O)NC(=O)[C@H](Cc2cncnc2)NC(=O)C(C)(C)NC(=O)[C@H](Cc2c[nH]c3ccccc23)NC(=O)[C@H](CCC(=O)O)NC(=O)C(C)(C)NC1=O
B4: SEQ ID NO: 24 (peptide)
peptide: cyclo([Bip(4'-COOH)][4Pal][Phe(4-COOH)]G[Pro(cis-4-F)][Trp(βS-Me,4-F)][Aib]EW[Aib][Ala(pyrimidin-5-yl)]Q[Ala(morpholin-4-yl)]G[dPro(4R-Bzl(4-F))])
SMILES: C[C@@H](c1c[nH]c2cccc(F)c12)[C@@H]1NC(=O)[C@@H]2C[C@H](F)CN2C(=O)CNC(=O)[C@H](Cc2ccc(C(=O)O)cc2)NC(=O)[C@H](Cc2ccncc2)NC(=O)[C@H](Cc2ccc(-c3ccc(C(=O)O)cc3)cc2)NC(=O)[C@H]2C[C@@H](Cc3ccc(F)cc3)CN2C(=O)CNC(=O)[C@H](CN2CCOCC2)NC(=O)[C@H](CCC(N)=O)NC(=O)[C@H](Cc2cncnc2)NC(=O)C(C)(C)NC(=O)[C@H](Cc2c[nH]c3ccccc23)NC(=O)[C@H](CCC(=O)O)NC(=O)C(C)(C)NC1=O
B5: SEQ ID NO: 25 (peptide)
peptide: cyclo([TyrEtNAc][Ala(1-bicyclo(1.1.1)pentyl)][Phe(4-COOH)]G[Pro(cis-4-F)][Trp(βS-Me,4-F)][Aib]EW[Aib][Ala(pyrimidin-5-yl)]Q[Dab]G[dPro(4R-Bzl(4-F))])
SMILES: CC(=O)NCCOc1ccc(C[C@@H]2NC(=O)[C@H]3C[C@@H](Cc4ccc(F)cc4)CN3C(=O)CNC(=O)[C@H](CCN)NC(=O)[C@H](CCC(N)=O)NC(=O)[C@H](Cc3cncnc3)NC(=O)C(C)(C)NC(=O)[C@H](Cc3c[nH]c4ccccc34)NC(=O)[C@H](CCC(=O)O)NC(=O)C(C)(C)NC(=O)[C@H]([C@@H](C)c3c[nH]c4cccc(F)c34)NC(=O)[C@@H]3C[C@H](F)CN3C(=O)CNC(=O)[C@H](Cc3ccc(C(=O)O)cc3)NC(=O)[C@H](CC34CC(C3)C4)NC2=O)cc1
B6: SEQ ID NO: 32 (peptide)
peptide: cyclo([Bip(4'-COOH)][4Pal][Phe(4-COOH)]G[Pro(cis-4-F)][Trp(βS-Me,4-F)][Aib]EW[Aib]RQSG[dPro(4R-Bzl(4-F))])
SMILES: C[C@@H](c1c[nH]c2cccc(F)c12)[C@@H]1NC(=O)[C@@H]2C[C@H](F)CN2C(=O)CNC(=O)[C@H](Cc2ccc(C(=O)O)cc2)NC(=O)[C@H](Cc2ccncc2)NC(=O)[C@H](Cc2ccc(-c3ccc(C(=O)O)cc3)cc2)NC(=O)[C@H]2C[C@@H](Cc3ccc(F)cc3)CN2C(=O)CNC(=O)[C@H](CO)NC(=O)[C@H](CCC(N)=O)NC(=O)[C@H](CCCNC(=N)N)NC(=O)C(C)(C)NC(=O)[C@H](Cc2c[nH]c3ccccc23)NC(=O)[C@H](CCC(=O)O)NC(=O)C(C)(C)NC1=O
B7: SEQ ID NO: 23 (peptide)
peptide: cyclo([Bip(4'-COOH)][4Pal][Phe(4-COOH)]G[Pro(cis-4-F)][Trp(βS-Me,4-F)][Aib]EW[d(αMeS)][Ala(pyrimidin-5-yl)]Q[Dab]G[dPro(4R-Bzl(4-F))])
SMILES: C[C@@H](c1c[nH]c2cccc(F)c12)[C@@H]1NC(=O)[C@@H]2C[C@H](F)CN2C(=O)CNC(=O)[C@H](Cc2ccc(C(=O)O)cc2)NC(=O)[C@H](Cc2ccncc2)NC(=O)[C@H](Cc2ccc(-c3ccc(C(=O)O)cc3)cc2)NC(=O)[C@H]2C[C@@H](Cc3ccc(F)cc3)CN2C(=O)CNC(=O)[C@H](CCN)NC(=O)[C@H](CCC(N)=O)NC(=O)[C@H](Cc2cncnc2)NC(=O)[C@@](C)(CO)NC(=O)[C@H](Cc2c[nH]c3ccccc23)NC(=O)[C@H](CCC(=O)O)NC(=O)C(C)(C)NC1=O
B8: SEQ ID NO: 31 (peptide)
peptide: cyclo([Bip(4'-COOH)][4Pal][Phe(4-COOH)]G[Pro(cis-4-F)][Trp(βS-Me,4-F)][Aib]EW[Aib][Ala(pyrimidin-5-yl)]Q[Dab]G[dProc4Bn])
SMILES: C[C@@H](c1c[nH]c2cccc(F)c12)[C@@H]1NC(=O)[C@@H]2C[C@H](F)CN2C(=O)CNC(=O)[C@H](Cc2ccc(C(=O)O)cc2)NC(=O)[C@H](Cc2ccncc2)NC(=O)[C@H](Cc2ccc(-c3ccc(C(=O)O)cc3)cc2)NC(=O)[C@H]2C[C@@H](Cc3ccccc3)CN2C(=O)CNC(=O)[C@H](CCN)NC(=O)[C@H](CCC(N)=O)NC(=O)[C@H](Cc2cncnc2)NC(=O)C(C)(C)NC(=O)[C@H](Cc2c[nH]c3ccccc23)NC(=O)[C@H](CCC(=O)O)NC(=O)C(C)(C)NC1=O
B9: SEQ ID NO: 27 (peptide)
peptide: cyclo([Bip(4'-COOH)][4Pal][Phe(4-COOH)]G[Pro(cis-4-F)][Trp(βS-Me,4-F)][Aib]EW[Aib]FQSG[dProc3CH2Pyrim])
SMILES: C[C@@H](c1c[nH]c2cccc(F)c12)[C@@H]1NC(=O)[C@@H]2C[C@H](F)CN2C(=O)CNC(=O)[C@H](Cc2ccc(C(=O)O)cc2)NC(=O)[C@H](Cc2ccncc2)NC(=O)[C@H](Cc2ccc(-c3ccc(C(=O)O)cc3)cc2)NC(=O)[C@H]2[C@@H](Cc3cncnc3)CCN2C(=O)CNC(=O)[C@H](CO)NC(=O)[C@H](CCC(N)=O)NC(=O)[C@H](Cc2ccccc2)NC(=O)C(C)(C)NC(=O)[C@H](Cc2c[nH]c3ccccc23)NC(=O)[C@H](CCC(=O)O)NC(=O)C(C)(C)NC1=O
B10: SEQ ID NO: 3 (peptide)
peptide: cyclo([Bip(4'-COOH)][4Pal][Phe(4-COOH)]G[Pro(cis-4-F)][Trp(βS-Me,4-F)][Aib]EW[Aib][Ala(pyrimidin-5-yl)]QSG[dPro(4R-Bzl(4-F))])
SMILES: C[C@@H](c1c[nH]c2cccc(F)c12)[C@@H]1NC(=O)[C@@H]2C[C@H](F)CN2C(=O)CNC(=O)[C@H](Cc2ccc(C(=O)O)cc2)NC(=O)[C@H](Cc2ccncc2)NC(=O)[C@H](Cc2ccc(-c3ccc(C(=O)O)cc3)cc2)NC(=O)[C@H]2C[C@@H](Cc3ccc(F)cc3)CN2C(=O)CNC(=O)[C@H](CO)NC(=O)[C@H](CCC(N)=O)NC(=O)[C@H](Cc2cncnc2)NC(=O)C(C)(C)NC(=O)[C@H](Cc2c[nH]c3ccccc23)NC(=O)[C@H](CCC(=O)O)NC(=O)C(C)(C)NC1=O
B11: SEQ ID NO: 26 (peptide)
peptide: cyclo([3Pal4Ph4CO2H][4Pal][Phe(4-COOH)]G[Pro(cis-4-F)][Trp(βS-Me,4-F)][Aib]EW[Aib][Ala(pyrimidin-5-yl)]Q[Dab]G[dPro(4R-Bzl(4-F))])
SMILES: C[C@@H](c1c[nH]c2cccc(F)c12)[C@@H]1NC(=O)[C@@H]2C[C@H](F)CN2C(=O)CNC(=O)[C@H](Cc2ccc(C(=O)O)cc2)NC(=O)[C@H](Cc2ccncc2)NC(=O)[C@H](Cc2ccc(-c3ccc(C(=O)O)cc3)nc2)NC(=O)[C@H]2C[C@@H](Cc3ccc(F)cc3)CN2C(=O)CNC(=O)[C@H](CCN)NC(=O)[C@H](CCC(N)=O)NC(=O)[C@H](Cc2cncnc2)NC(=O)C(C)(C)NC(=O)[C@H](Cc2c[nH]c3ccccc23)NC(=O)[C@H](CCC(=O)O)NC(=O)C(C)(C)NC1=O
B12: SEQ ID NO: 33 (peptide)
peptide: cyclo([Bip(4'-COOH)][4Pal][Phe(4-COOH)]G[Pro(cis-4-F)][Trp(βS-Me,4-F)][Aib]EW[Aib]RQ[Dab]G[dPro(4R-Bzl(4-F))])
SMILES: C[C@@H](c1c[nH]c2cccc(F)c12)[C@@H]1NC(=O)[C@@H]2C[C@H](F)CN2C(=O)CNC(=O)[C@H](Cc2ccc(C(=O)O)cc2)NC(=O)[C@H](Cc2ccncc2)NC(=O)[C@H](Cc2ccc(-c3ccc(C(=O)O)cc3)cc2)NC(=O)[C@H]2C[C@@H](Cc3ccc(F)cc3)CN2C(=O)CNC(=O)[C@H](CCN)NC(=O)[C@H](CCC(N)=O)NC(=O)[C@H](CCCNC(=N)N)NC(=O)C(C)(C)NC(=O)[C@H](Cc2c[nH]c3ccccc23)NC(=O)[C@H](CCC(=O)O)NC(=O)C(C)(C)NC1=O

target: Recombinant human IL-1β (BioLegend 579404) (human, UniProt P01584 117-269); experiment: cell-based or functional assay

MRC5 IC50	Binder
0.032 nM	B1
0.026 nM	B2
0.019 nM	cyclo([Bip(4'-COOH)][4Pal][Phe(4-COOH)]G[Pro(cis-4-F)][Trp(βS-Me,4-F)][Aib]EW[Aib][Ala(pyrimidin-5-yl)]Q[Dab]G[dProc3Bn]) [SEQ ID NO: 29]
0.023 nM	B3
0.049 nM	B4
0.053 nM	B5
0.049 nM	B6
0.018 nM	B7
0.024 nM	B8
0.098 nM	B9
0.037 nM	B10
0.035 nM	B11
0.033 nM	B12
